Consider 1 substance from US6436901B1, “Pharmaceutical compositions” (UCP Gen-Pharma AG, priority 1994, dated 2002).

The nature of the data set: RP-HPLC of hirudin in water (FIG. 1). In kind it is physicochemical. The procedure:
RP-HPLC method: A LiChroCART 125-4 column is used (Merck LiChrospher 100 RP-18 5 μm). Solvent A is 0.5% ammoniumacetate in acetonitrile/water (10:90), (v:v); solvent B is 0.5% ammoniumacetate in acetonitrile/water (25:75). The elution is performed at 45° C. using a flow rate of 0.5 ml/min. The binary elution is a linear gradient starting at time zero with 23% solvent B and reaching 46% solvent B after 24 minutes. After 2 min at 70% solvent B the column is equilibrated for 7 min at 23% solvent B.
A typical chromatogram of recombinant hirudin HV1 (CGP 39393) in water using the RP-HPLC (1 mg/ml hirudin) method is shown in FIG. 1.
In FIG. 1 the relative area of the main peak is 95.15%. […] The changes which occur can be accelerated by using temperature stress experiments i.e. by storage at elevated temperatures.

Regarding hirudin, under “in water, 1 mg/ml hirudin, typical chromatogram FIG. 1, no storage stress”, the “relative area of the main peak” value was 95.15%. For the same substance, where the note is “storage in water at room temperature”, the “stability on storage in water” value is given as “increase of by products with time”.
